In patent publication EP4741425A1 (Shenzhen Synthetica Pioneering Co., Ltd., dated 2026):

T1: CXCR2 on the surface of neutrophils (primary neutrophils from blood of C57BL/6 mice) (mouse, UniProt P35343 1-359)
T1 construct: whole, on cells; No CXCR2-specific control is reported
T1 sequence (looked up): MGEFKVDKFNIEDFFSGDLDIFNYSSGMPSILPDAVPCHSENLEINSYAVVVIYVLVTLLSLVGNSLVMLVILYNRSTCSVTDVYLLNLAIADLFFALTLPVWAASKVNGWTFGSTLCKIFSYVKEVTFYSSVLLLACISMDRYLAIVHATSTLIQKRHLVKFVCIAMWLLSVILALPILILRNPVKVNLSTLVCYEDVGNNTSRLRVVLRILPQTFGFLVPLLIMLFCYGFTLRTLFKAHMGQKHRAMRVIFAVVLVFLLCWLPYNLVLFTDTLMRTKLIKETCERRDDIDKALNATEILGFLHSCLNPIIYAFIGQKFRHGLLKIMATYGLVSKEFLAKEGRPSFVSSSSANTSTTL


Biological target: T1, CXCR2 on the surface of neutrophils …
Assay: flow cytometry on primary mouse blood neutrophils, anti-His tag PE detection

| Binder | binding result |
| --- | --- |
| Nb163E3 (VHH, Expressed in E. coli BL21(DE3) as signal peptide + nanobody + HA-His tag and purified on a nickel column by the His tag; The signal peptide is left out here as a secretion signal; also called Nb163E3-HA-his; not shown: HA-His tag linked directly to the C-terminus) VHH: EVQLVESGGGLVQPGGSVRLSCVASGRIFSSNAMGWFRQAPGKEREFVAAITWRSGGSAYYADSAKGRFTISRDNAKNTVYLQMNSLKPEDTAVYYCAAGGSSWLSFPPDYWGQGTQVTVSS | binds |
| Nb127D01 (VHH, Expressed in E. coli BL21(DE3) as signal peptide + nanobody + HA-His tag and purified on a nickel column by the His tag; The signal peptide is left out here as a secretion signal; also called Nb127D01-HA-his; not shown: HA-His tag linked directly to the C-terminus) VHH: EVQLVESGGGLVQAGESLRLSCAASGSTFDFKVMGWYRQPPGKQREGVAAIRLSGNMHYAESVKGRFAISKANAKNTVYLQMNSLRPEDTAVYYCKVNIRGQDYWGQGTQVTVSS | binds |
